Results as given in US20210155689A1 (SHANGHAI PHARMAEXPLORER, published 2021).
Residue numbers refer to the chain shown, from its start.

T1: hFc tagged monkey LAG-3 protein (cLAG-3-hFc protein) (monkey; human)
T1 construct: Made in HEK293 cells; also called monkey LAG-3 extracellular domain protein; not shown: human IgG Fc fragment (hFc) of the pCpC vector
T1 chain: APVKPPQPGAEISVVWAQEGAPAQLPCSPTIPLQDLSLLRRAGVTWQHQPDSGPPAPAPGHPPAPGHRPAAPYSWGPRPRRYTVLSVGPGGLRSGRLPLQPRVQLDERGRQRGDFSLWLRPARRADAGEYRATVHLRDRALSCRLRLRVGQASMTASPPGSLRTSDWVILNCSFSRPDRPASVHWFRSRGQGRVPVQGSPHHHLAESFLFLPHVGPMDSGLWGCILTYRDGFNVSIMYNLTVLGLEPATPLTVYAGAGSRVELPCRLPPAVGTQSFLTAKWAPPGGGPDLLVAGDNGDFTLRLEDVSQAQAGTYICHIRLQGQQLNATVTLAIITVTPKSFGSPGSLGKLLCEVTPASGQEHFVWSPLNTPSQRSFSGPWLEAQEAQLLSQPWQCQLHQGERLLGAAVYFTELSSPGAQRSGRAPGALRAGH

T2: monkey LAG-3 on cells (HEK293-cLAG-3 stable cell line) (monkey, UniProt P18627 24-525 (human entry))
T2 construct: Full-length monkey (Chinese monkey) LAG-3 gene expressed on HEK293 cells
T2 chain: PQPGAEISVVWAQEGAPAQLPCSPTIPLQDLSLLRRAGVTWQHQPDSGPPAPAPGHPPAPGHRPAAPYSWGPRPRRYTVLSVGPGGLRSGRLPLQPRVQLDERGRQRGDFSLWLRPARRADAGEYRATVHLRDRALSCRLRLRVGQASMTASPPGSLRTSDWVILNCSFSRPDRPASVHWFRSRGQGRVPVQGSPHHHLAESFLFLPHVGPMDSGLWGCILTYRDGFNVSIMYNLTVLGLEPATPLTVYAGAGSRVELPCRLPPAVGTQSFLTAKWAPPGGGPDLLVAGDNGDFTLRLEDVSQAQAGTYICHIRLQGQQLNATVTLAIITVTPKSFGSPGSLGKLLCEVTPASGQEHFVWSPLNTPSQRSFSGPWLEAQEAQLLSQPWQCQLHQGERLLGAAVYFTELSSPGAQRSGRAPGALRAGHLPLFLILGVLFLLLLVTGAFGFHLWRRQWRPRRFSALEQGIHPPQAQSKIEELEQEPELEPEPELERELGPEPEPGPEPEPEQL

T3: human LAG-3 protein with hFc tag (hLAG-3-hFc protein) (human, UniProt P18627 23-450)
T3 construct: also called immunogen 1; LAG-3 extracellular domain protein; not shown: human IgG Fc fragment (hFc) of the pCpC vector
T3 sequence: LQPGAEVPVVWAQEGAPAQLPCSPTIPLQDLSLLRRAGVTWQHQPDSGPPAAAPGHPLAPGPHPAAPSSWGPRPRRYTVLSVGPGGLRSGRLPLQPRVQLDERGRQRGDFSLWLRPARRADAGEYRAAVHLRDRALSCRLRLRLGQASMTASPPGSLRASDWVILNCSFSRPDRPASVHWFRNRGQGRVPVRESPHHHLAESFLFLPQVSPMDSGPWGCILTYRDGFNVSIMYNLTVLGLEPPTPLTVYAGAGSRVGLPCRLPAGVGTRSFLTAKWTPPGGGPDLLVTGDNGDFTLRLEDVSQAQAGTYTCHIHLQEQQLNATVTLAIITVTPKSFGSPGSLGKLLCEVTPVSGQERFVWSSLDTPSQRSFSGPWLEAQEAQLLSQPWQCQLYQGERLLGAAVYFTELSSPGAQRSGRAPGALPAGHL

B1: 556F6B8 (LAG-3 mouse-human chimeric antibody) (antibody, V domains shown)
VH: RVQLKQSGPGLVQPSQSLSITCTVSGFSLIKYGVHWVRQSPGEGLEWLGVIWRGGITDYNAAFMSRLSITKDNSKSQVFFKMNSLQADDTAIYYCAKWDGPLAMDYWGQGTSVTVSS
VL: DIVMTQSHKFLSTSVGDRVSITCKASQDVGTTVAWYQQKPGQSPKLLIYWASTRHTGVPDRFTGSGSGTDFTLTISNVQSEDLADYFCQQYSSYPYTFGGGTKLEIK
notes: also called 556F8B8
B2: 105F1E10 (LAG-3 mouse-human chimeric antibody) (antibody, V domains shown)
VH: EVQLQQSGPELVKPGASVKMSCRASGYTFTDFKMHWMKQSHGKSLEWIGYIAPNNGGTAYNQKFRGKATLTVNESSNTAYMELRSLTSEDSAVYYCVDWDDVDYWGQGTTLTVSS
VL: DIKMTQSPSSMYASLGERVTITCKASQDINSYLSWFQQKSGKSPKTLIYRANRLVDGVPSRFSGSGSGQDYSLTISSLEYEDMGIYYCLQYVEFPLTFGAGTKLELK
B3: 405B8H3 (LAG-3 mouse-human chimeric antibody) (antibody, V domains shown)
VH: QVQLQQSGAELVRPGASVTLSCKASGYTFTDYEMHWVKQTPVHGLEWIGATDPETGNSAYNQKFKGKAIMTADKSSSTAYMELRSLTSEDSAVYYCISTGWNDWGQGTSLTVSS
VL: B2 VL with S40P, N52D, V55L, E81G, V92D, L96Y, A100G, L106I
notes: also called mouse-human chimeric antibody 405B8H3
B4: 409D4E10 (LAG-3 mouse-human chimeric antibody) (antibody, V domains shown)
VH: B3 VH with Y27N, G56D, S58T, M70L, A72T, S98T, T99S
VL: B2 VL with S40P, V55L, V92N, L96Y, A100G, L106I
B5: 409B11E12 (LAG-3 mouse-human chimeric antibody) (antibody, V domains shown)
VH: B3 VH with P41T, G56S, N57Y, M70L, S98A
VL: B2 VL with I2L, S40P, V55L, V92D, L96Y, A100G, L106I
B6: 556F6B8 mouse-human chimeric antibody (antibody, V domains shown)
VH: B1 VH
VL: B1 VL
notes: also called mAb123-556F6B8; 556F8B8
B7: 405B8H3 mouse-human chimeric antibody (antibody, V domains shown)
VH: B3 VH
VL: B2 VL with S40P, N52D, V55L, E81G, V92D, L96Y, A100G, L106I
notes: also called mAb103-405B8H3
B8: 105F1E10 mouse-human chimeric antibody (antibody, V domains shown)
VH: B2 VH
VL: B2 VL
notes: also called mAb009-105F1E10
B9: 409B11E12 mouse-human chimeric antibody (antibody, V domains shown)
VH: B3 VH with P41T, G56S, N57Y, M70L, S98A
VL: B2 VL with I2L, S40P, V55L, V92D, L96Y, A100G, L106I
notes: also called mAb104-409B11E12
B10: 409D4E10 mouse-human chimeric antibody (antibody, V domains shown)
VH: B3 VH with Y27N, G56D, S58T, M70L, A72T, S98T, T99S
VL: B2 VL with S40P, V55L, V92N, L96Y, A100G, L106I
notes: also called mAb112-409D4E10
B11: 556F6B8 (mouse antibody purified from hybridoma) (antibody, V domains shown)
VH: B1 VH
VL: B1 VL
notes: also called mAb123-556F6B8
B12: 405B8H3 (mouse antibody purified from hybridoma) (antibody, V domains shown)
VH: B3 VH
VL: B2 VL with S40P, N52D, V55L, E81G, V92D, L96Y, A100G, L106I
notes: also called mAb103-405B8H3; 405B81-13
B13: 105F1E10 (mouse antibody purified from hybridoma) (antibody, V domains shown)
VH: B2 VH
VL: B2 VL
notes: also called mAb009-105F1E10
B14: 409D4E10 (mouse antibody purified from hybridoma) (antibody, V domains shown)
VH: B3 VH with Y27N, G56D, S58T, M70L, A72T, S98T, T99S
VL: B2 VL with S40P, V55L, V92N, L96Y, A100G, L106I
notes: also called mAb112-409D4E10
B15: 409B11E12 (mouse antibody purified from hybridoma) (antibody, V domains shown)
VH: B3 VH with P41T, G56S, N57Y, M70L, S98A
VL: B2 VL with I2L, S40P, V55L, V92D, L96Y, A100G, L106I
notes: also called mAb104-409B11E12

Biological target: T1, hFc tagged monkey LAG-3 protein …
Experiment: ELISA, cLAG-3-hFc coated; 66.6670 nM
Method: The plate was sealed with plastic film and incubated overnight at 4° C. The plate was washed 2 times with the plate washing solution (PBS+0.01% Tween20) on the next day, and added with the blocking solution (PBS+0.01% Tween20+1% BSA) and blocked at room temperature for 1-2 hours. The blocking solution was poured out, and the plate was added with 50-100 μl of the antibody sample to be tested to each well, incubated at 37° C. for 1-2 hours, and washed 2-3 times with a plate washing solution (PBS+0.01% Tween20). HRP (horseradish peroxidase) labeled secondary antibody was added, and the plate was incubated at 37° C. for 1-2 hours, and washed 2-3 times with a plate washing solution (PBS+0.01% Tween20). 100 μl of TMB substrate was added to each well. After incubated at room temperature for 15-30 minutes, the plate was added with 100 μl of stop solution (1.0N HCl) to each well.

First: B1
Second: B2
The OD450 of the first is higher: 3.72 OD450 for the first, 3.59 OD450 for the second.

Compared with B3, B4 is higher in OD450: 3.46 OD450 for the first, 3.77 OD450 for the second.

B5 was tested, and the OD450 was 3.44 OD450.

Biological target: T2, monkey LAG-3 on cells (HEK293-cLAG-3 …)
Experiment: FACS, HEK293-cLAG-3, antibody 0.064 nM
Description: The pIRES plasmid with the monkey-derived full-length gene was transfected into the HEK293 cell line to construct a HEK293 stable cell line containing monkey LAG-3 (herein referred to as HEK293-cLAG-3 stable cell line). The HEK293-hLAG-3 stable cell line and HEK293-cLAG-3 stable cell line were expanded in a T-75 cell culture flask to a 90% confluence. The medium was aspirated, and the cells were washed with HBSS (Hanks' Balanced Salt Solution) 1-2 times, then treated with a enzyme-free cell dissociation fluid (Versene solution: Life technology) and the cells were collected. The cells were washed with HBSS buffer for 1-2 times. After counted, the cells were diluted with HBSS to 1-2×10⁶ cells per ml, added with 1% goat serum blocking solution, incubated on ice for 20-30 minutes, and then washed with HBSS for 2 times by centrifugation. The collected cells were suspended in the FACS buffer (HBSS+1% BSA) to 2×10⁶ cells/ml, added as 100 microliters per well to a 96-well FACS reaction plate, added with 100 microliters per well of the antibody sample to be tested, incubated on ice for 1-2 hours. The plate was washed twice with the FACS buffer by centrifugation, added with 100 microliters of fluorescent (Alexa 488)-labeled secondary antibodies per well, and incubated on ice for 0.5-1.0 hours. The plate was washed 2-3 times with FACS buffer by centrifugation, added with 100 μl fixative solution (4% Paraformaldehyde) per well to suspend the cells. 5-10 minutes later, it was washed 1-2 times with FACS buffer by centrifugation. The cells were suspended with 100 microliters of FACS buffer, FACS (FACSCalibur, BD) was used for detection and the results were analyzed.

Compared with B6, B7 is higher in Mean fluorescence intensity: 4.45 for the first, 4.8 for the second.

Compared with B8, B9 is higher in Mean fluorescence intensity: 3.54 for the first, 4.95 for the second.

B10 was tested, and the Mean fluorescence intensity was 4.42.

The binders below were run against T3, human LAG-3 protein with hFc tag … (assay: FACS, blocks LAG-3-hFc binding to MHC II on Raji; 2.469 nM).
Method: The FACS reaction plate incubating the Raji cells was centrifuged to discard the supernatant. The above mixture was added as 100 μl per well to Raji cells and incubated on ice for 1-2 hours. The plate was washed twice with blocking solution (PBS, 2% fetal bovine serum) by centrifugation, added with 100 microliters of fluorescent (Alexa 488)-labeled secondary antibodies per well, and incubated on ice for 1.0 hours. The plate was washed 2-3 times by centrifugation with blocking solution (PBS, 2% fetal bovine serum), added with 100 microliters of PBS per well to suspend cells, and detected using FACS (FACS Calibur, BD) and the results were analyzed. Wherein, the IgG control was murine IgG, and the data in the table is the inhibition rate (%).

First: B11
Second: B12
The “Inhibition rate (%)” value of the first is higher: 48.1% for the first, 41.9% for the second.

Compared with B13, B14 is higher in “Inhibition rate (%)” value: 27.8% for the first, 44.7% for the second.

With B15 the “Inhibition rate (%)” value was 39.6%.
